{"source": "patent US20220267415A1", "about": "(University of Texas, published 2022)", "binders": {"B1": {"name": "anti-SARS-CoV2-09 IgM (antibody)", "VH": "QVQLHQWGAGLLKPSETLSRTCAVYGGSFSGYYWTWIRQAPGKGLEWIGEINHGGSTRYNPSLESRVSISVDTSKKQFSLELRSVTAADTAIYYCARGYDTNWYGDGYNWFDPWDRGTLVTVSS", "VL": "QSALTQDPSVSVALGQTVRITCQGDSLRGSFASWYRQKPGQAPVLVIFGINNRPSGVPDRFSGSSSGNTASLTITGAQAEDEADYYCNSRESNSNRILFGGGTKVTVL", "chain": "not shown"}}, "key": {"[1]": {"molecular_target": "T1, recombinant SARS-CoV-2 Receptor Binding Domain (RBD) with a his tag (ATUM, Cat. 65639.1.a) (SARS-CoV-2, UniProt P0DTC2 319-541)", "assay": "ELISA on coated RBD-his", "excerpt": "Plates were then washed 5 times with 0.05% PBS-Tween and blocked with 2% BSA-PBS. […] Luminescent data were collected on an EnVision plate reader (Perkin-Elmer) and analyzed with GraphPad Prism using a 4-parameter logistic model."}, "[2]": {"molecular_target": "T1, recombinant SARS-CoV-2 Receptor Binding …"}}, "data": [{"binder": "B1", "values": [{"measurement": "EC50", "setting": "[1]", "value": 300, "unit": "pM"}, {"measurement": "EC50 (read off the curve)", "setting": "[2]", "value": "~400", "unit": "pM"}]}]}
